Values quoted from earlier work as cited in paper PMC9190259.
pKd: −log10 of the molar value.

Target: TNFα (Homo sapiens) (UniProt P01375)
Chain of UniProt P01375 (P01375 77-233): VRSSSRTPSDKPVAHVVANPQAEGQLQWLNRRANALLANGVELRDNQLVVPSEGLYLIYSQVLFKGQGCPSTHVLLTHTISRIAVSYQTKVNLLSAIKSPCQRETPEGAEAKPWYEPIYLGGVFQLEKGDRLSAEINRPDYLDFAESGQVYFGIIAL

pKd: 10.05
Substance: Certolizumab Fab
